Test results taken from patent US20130129753A1 (Pfizer, published 2013).

T1: IL-13Rα2 receptor (human, UniProt Q14627 27-380)
T1 sequence (looked up): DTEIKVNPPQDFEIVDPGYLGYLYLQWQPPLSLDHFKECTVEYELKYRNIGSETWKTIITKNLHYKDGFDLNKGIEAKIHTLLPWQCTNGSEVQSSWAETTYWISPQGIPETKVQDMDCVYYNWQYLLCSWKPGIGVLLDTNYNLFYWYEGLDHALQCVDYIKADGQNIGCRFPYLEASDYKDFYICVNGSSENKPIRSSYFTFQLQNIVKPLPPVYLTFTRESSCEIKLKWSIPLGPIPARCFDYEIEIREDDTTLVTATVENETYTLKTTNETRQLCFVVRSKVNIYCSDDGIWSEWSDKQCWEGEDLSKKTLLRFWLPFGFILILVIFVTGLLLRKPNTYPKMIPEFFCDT

B1: IL13Ra2-AB08-v1010-hG1-(C)_mcValCitPABC-#54 (antibody, V domains shown)
VH: EVQLVESGGGLVQPGGSLRLSCAASGFTFSRNGMSWVRQAPGKGLEWVATVSSGGSYIYYADSVKGRFTISRDNAKNSLYLQMNSLRAEDTAVYYCARQGTTALATRFFDVWGQGTLVTVSS
VL: DIQMTQSPSSLSASVGDRVTITCKASQDVGTAVAWYQQKPGKAPKLLIYSASYRSTGVPSRFSGSGSGTDFTLTISSLQPEDFATYYCQHHYSAPWTFGGGTKVEIKT
modifications: drug-linker mcValCitPABC-#54 on cysteine (C), positions not given; drug-linker mcValCitPABC-#54 on cysteine (C), positions not given; DAR 3.2 per antibody
B2: IL13Ra2-AB08-v1010-hG1-(C)_MalPeg6C2-#117 (antibody, V domains shown)
VH: B1 VH
VL: B1 VL
modifications: drug-linker MalPeg6C2-#117 on cysteine (C), positions not given; drug-linker MalPeg6C2-#117 on cysteine (C), positions not given; DAR 3.3 per antibody
B3: IL13Ra2-AB08-v1010-hG1-(C)_mc-#115 (antibody, V domains shown)
VH: B1 VH
VL: B1 VL
modifications: drug-linker mc-#115 on cysteine (C), positions not given; drug-linker mc-#115 on cysteine (C), positions not given; DAR 4.3 per antibody
B4: IL13Ra2-AB08-v1010-hG1-(C)_mc-0#118 (antibody, V domains shown)
VH: B1 VH
VL: B1 VL
modifications: drug-linker mc-0#118 on cysteine (C), positions not given; drug-linker mc-0#118 on cysteine (C), positions not given; DAR 3.2 per antibody
B5: IL13Ra2-AB08-v1010-hG1-(C)_mcValCitPABC-#112 (antibody, V domains shown)
VH: B1 VH
VL: B1 VL
modifications: drug-linker mcValCitPABC-#112 on cysteine (C), positions not given; drug-linker mcValCitPABC-#112 on cysteine (C), positions not given; DAR 4 per antibody
B6: IL13Ra2-AB08-v1010-hG1-(C)_Mal(H2O)Peg6C2-0#118 (antibody, V domains shown)
VH: B1 VH
VL: B1 VL
modifications: drug-linker Mal(H2O)Peg6C2-0#118 on cysteine (C), positions not given; drug-linker Mal(H2O)Peg6C2-0#118 on cysteine (C), positions not given; DAR 2.9 per antibody
B7: IL13Ra2-AB08-v1010-hG1-(C)_mc-#117 (antibody, V domains shown)
VH: B1 VH
VL: B1 VL
modifications: drug-linker mc-#117 on cysteine (C), positions not given; drug-linker mc-#117 on cysteine (C), positions not given; DAR 3.3 per antibody
B8: IL13Ra2-AB08-v1010-hG1-(C)_mcValCitPABC-#226 (antibody, V domains shown)
VH: B1 VH
VL: B1 VL
modifications: drug-linker mcValCitPABC-#226 on cysteine (C), positions not given; drug-linker mcValCitPABC-#226 on cysteine (C), positions not given; DAR 3 per antibody
B9: humanized antibody hu08 (antibody, V domains shown)
VH: B1 VH
VL: B1 VL
notes: Unconjugated antibody; also called hu08v1.0/1.0; IL13Ra2-AB08-v1010-hG1
B10: Notch-28-v1010-hG1-(C)_mcValCitPABC-#54 (antibody, human IgG1, kappa, V domains shown)
VH: EVQLVESGGGLVQPGGSLRLSCAASGFTFRDYGMTWVRQAPGKGLEWVAYISSGSNYIYYAEAVKGRFTISRDNAKNSLYLQMNSLRAEDTAVYYCARRGPFVLDAWGQGTLVTVSS
VL: DIQMTQSPSSLSASVGDRVTITCKASQSINRYLHWYQQKPGKAPKLLIYNANGLQTGVPSRFSGSGSGTDFTLTISSLQPEDFATYYCLQHNTWPDTFGGGTKVEIKR
modifications: drug-linker mcValCitPABC-#54 on cysteine (C), positions not given; drug-linker mcValCitPABC-#54 on cysteine (C), positions not given; DAR 3.9 per antibody
B11: Notch-28-v1010-hG1-(C)_mcValCitPABC-#112 (antibody, human IgG1, kappa, V domains shown)
VH: B10 VH
VL: B10 VL
modifications: drug-linker mcValCitPABC-#112 on cysteine (C), positions not given; drug-linker mcValCitPABC-#112 on cysteine (C), positions not given; DAR 3.9 per antibody
B12: Notch-75-v1913-hG1-(C)_mcValCitPABC-#54 (antibody, human IgG1, kappa, V domains shown)
VH: EVQLVESGGGLVQPGGSLRLSCAASGYAFTDYWMTWVRQAPGKGLEWVAEISPNSGGTNFNEKFKGRFTISVDNAKNSLYLQMNSLRAEDTAVYYCARGEIRYNWFAYWGQGTLVTVSS
VL: DIQMTQSPSSLSASVGDRVTITCKASQNVGNNIAWYQQKPGKAPKLLIYYASNRYTGVPSRFSGSGYGTDFTLTISSLQPEDFATYYCQRLYNSPFTFGGGTKVEIKR
modifications: drug-linker mcValCitPABC-#54 on cysteine (C), positions not given; drug-linker mcValCitPABC-#54 on cysteine (C), positions not given; DAR 3.8 per antibody
B13: Notch-75-v1913-hG1-(C)_mcValCitPABC-#112 (antibody, human IgG1, kappa, V domains shown)
VH: B12 VH
VL: B12 VL
modifications: drug-linker mcValCitPABC-#112 on cysteine (C), positions not given; drug-linker mcValCitPABC-#112 on cysteine (C), positions not given; DAR 4.2 per antibody

Molecular target: T1, IL-13Rα2 receptor
Experiment: cell-based or functional assay

Binder	IC50 (ng Ab/mL), viability of A375 cells	IC50 (ng Ab/mL), viability of PC3MM2 cells
B1	3.8 ng Ab/mL	2.5 ng Ab/mL
B2	3.4 ng Ab/mL	3.5 ng Ab/mL
B3	2.2 ng Ab/mL	1.2 ng Ab/mL
B4	2.1 ng Ab/mL	1.3 ng Ab/mL
B5	2.2 ng Ab/mL	1.2 ng Ab/mL
B6	4.9 ng Ab/mL	2.9 ng Ab/mL
B7	2.4 ng Ab/mL	1.1 ng Ab/mL
B8	2.9 ng Ab/mL	1.5 ng Ab/mL

Molecular target: T1, IL-13Rα2 receptor
Experiment: statement in the example section; no binding assay described

Binder	binding result
B9	binds

Molecular target: Notch receptor (human)
Experiment: cell-based or functional assay

Binder	IC50 (ng Ab/mL), MTS viability of HCC2429 cells (repeat 1)	IC50 (ng Ab/mL), MTS viability of HCC2429 cells (repeat 2)	IC50 (ng Ab/mL), MTS viability of MDA-MB-468/hNotch cells (repeat 1)	IC50 (ng Ab/mL), MTS viability of MDA-MB-468/hNotch cells (repeat 2)	IC50 (ng Ab/mL), MTS viability of MDA-MB-468 cells	IC50 (ng Ab/mL), MTS viability of OVCAR3 cells	IC50 (ng Ab/mL), MTS viability of U2OS/hNotch cells
B10	473 ng Ab/mL	2940 ng Ab/mL	3.2 ng Ab/mL	3 ng Ab/mL	6540 ng Ab/mL	306 ng Ab/mL	1330 ng Ab/mL
B11	148 ng Ab/mL	2050 ng Ab/mL	1.3 ng Ab/mL	3 ng Ab/mL	–	17 ng Ab/mL	–
B12	611 ng Ab/mL	3300 ng Ab/mL	37 ng Ab/mL	36 ng Ab/mL	7000 ng Ab/mL	515 ng Ab/mL	523 ng Ab/mL
B13	214 ng Ab/mL	630 ng Ab/mL	26 ng Ab/mL	25 ng Ab/mL	–	254 ng Ab/mL	–
